This series can be described thus: label from the status in PepcDB records.
Take “MLFGDSVAIAFAQVSIHSRSKGHSAVAAAAYRSGARLYDDRIGRAYDFSKRDDVAFSEILLPDGTTDSFLERDYLWNEVERAENRSNSQLCKDFVLALPRELNLEQQIELAKRFARTHFVEKGLPADIAIHDHGDGNPHAHILIPTRRLENNRFSKYKARDLNPVFAKGFLVEQDYWGEQWREMQNEFFIENNLDLQVDANHLIAERHRGKHHNANAHYLLEENQLIQQARMELTRDNIDLVIDHLSTQYSVFTRRDVERLLFKTFQASDSPQEYLQFVERVLGHQDLVALGDNNKGEPSFTTRTHLMQEAQLLHDIEAMMVSKNHVVHQPIDSLAQQYRLSEEQYEAFRYITQSPDISVVIGRPGTGKSYLLKPLNEYYIQAGMEVIGAALSGKVAKALQAETGITSSTIKSLSYRLANDMMQLSDKHVLIIDEAGMVDFSSMGYLIKEAHKAGSKVVLIGDPDQLKPIQKGEIFRGIAARTGYIELENIKRQQDLGDRQASLNLAKGDIDKAIQHYQDKGAITITDTKLQAIEQVVADWKQDLESTNMADSIMLSYTRKAVNHLNDLAREALIVENKIGEENIVYQGLERSLKISTGERLLLRENNKVLGVRNGDTATVKEINVQQMKIQLDSGELLIIPKEYKALDYAYALTVHKSQGMTAKKVRVLIDSKYWDRNLSFVAMTRHKEQLNIYADKENHPTEQALKQTLSRSSTKDNVIDWPLDFAIRAGFDSDSLISRALNHIVGVGHKIKQAYNFIVNYEASLLKARHQERFQDIGQAIADAKQEALKVDTKEFESNDCKTSEQSFGILKKDFPQLVELETLIKRRQRMTGYFAEKTDKQIMALTQQLLTNKTFANQVKYQVPEFYQKLQSIDNKQKEKALLQNH”: the protein production result is given as “failed”.

Regarding “MLFIFLTIAALGLSFWAQFKVKSNFEKYSKVEASSGRTGAETARRILDINGLYDVPVEPVRGTLTDHYDPTRRVVRLSEPVYYGRSISAISVASHEVGHALQHQESYGALVLRHKIFPVVNFASGVAPLLFLGGMLLGSLNLIGLGIILFSAAVFFQLITLPVEFNASSRAKQIIVSEGFIRNNEENGVNKVLSAAALTYVAAALVSLFELLRFVMIFLNGRDEN”, the protein production entry was “failed”.

“MLFKTIFYQKLQKKVTTLFNLETERVIREIENLNKNNPKVIFQAPEGLKLKVEKEIEKIKQYFKQKNINIEIYLWGNTCFGACDLIDNHVKNLNVDLIIHYGHEKLSYANPEIKTLFIPAYHIFNKDEEEKILNDIKNFIEKHKSGGKKVAIATTIQYKKLLKDFNPSIILGCRGEVKEGDVILFVGTGRFHPLMIAYKYQKEVFIYNPLSKCFDKISEEEINKFIKKRILAISKLLLNKPKKVGVVLSTKKGQCRKRVFDEIIKLLEENDVNYLPILVDNISPDILFYDVDCYIIVACPRIVLDDYILYKKPIYTPEEFKLFLKNSFKYKFDEIKEDDFLEHHHHHH”: the protein production entry is on record as “not failed”.

As to “MLFLVKEIYLQHLIQFFYVGFGIFLLYLGGNLLLKSSVGIATYLKVPTLLIGVTIVSFSTSAPELFTSLVAAFKGKNEIVVSNVIGSNIINMLLALPLAGFFLKIKADFKRLKLSFMFLFLLMFLLLLLSFDFRSYSFFVTPYNRFSSFSILILFLSYLLLFYKEEKEYASLENSFQEGASNLNQSFNFIFFNLLSFAISMYFLYLGSKLLVDGALYIANNVFNVSEKLIGIILVAFGTSVPELVVSLFAIIRKESDIAFGNIIGSNIFNIGFILASSSFFRPILLQDIYILDFSIMVFITLVLFLVVKFKGVFGRGISLIFLLLYFLYNLMLFNFY”, the protein production result is on record as “failed”.

For “MLFRHKGILYLFLSSLIISAANPVIAKLITLGNEHLVNGRNPISFCNVLFAGNFIAVLTLILIHFRELKEFQPEHLTAKNWCLIFLAALFAGFLTPTLFFLGLMYTNVINVVLISNLQIPMTLLAGWIFLGEVPNIRVTTGAFLATLGVFAIVILQYWLGGAGALTPNPEMKTGPLFIFLSSIPRSGEICIFLAVVSSTASTIIGFHALRRLPHYLFSILKMLLGLVLFFFIVISMFGWHHFADLFSPFLWEWMLFYGSVIIALRYYFSMLGMKHAKVAEVAISSSIIPLMSIIFSYLILGEVPGISQIIGGSLILFGIYVALTGKLQAPEKTEILEKPSGFSGV”, the protein production result is recorded as “failed”.

In the case of “MLFTQALLVTLVGIIATIDYNGPLFMIHRPLVTSAMVGLVLGDFTQGVLIGSALELTWLGVTGIGGYTPPDTISGAIIGTAFGILSGQGETAGIAIAVPIAVATQQLDVLAKTLDVYFVKKADNDAKNGDYSKIGFYHYSSLVLITLFKIVPIFLAIMLGGEYVADLFAKVPPIVMQGLNSAGALLPSIGFGMLLNMMLKKNMWVFLLIGFICSVYGGMSTIGISLVGIAVAYFYDMIGSKPQETTSSSDVEEDLDL”, the protein production result was “failed”.

In the case of “MLGAAPENCTVNELNPDRANQLRSQGFTVTEQDATAYLPNQLYDVVIMNPPFGRVKGKRFRLAGEMGTTSQIDQAIALHSLQAMKDDGRAVLILG”, the protein production result is “failed”.

With “MLGGNNDNPVPQVLMNDSQFRYQSNTSLNQLHLLGTMRAGCTIDPVNYFANDNLAPMMRLNSTRGRETENNNIMQRQQKLQISLNYNYNNNNTVVQDEVPKQNLVSTGLRLSYDDDERNSSVTSANGSITTPVYQSLGDNIRLDLNRQNDELDQFIKFRADQMAKGVRDIKQRHVTSFVTALEKDVSKKLQEKDHEIESMNKKNRELVDKIKQVAVEAQNWHYKAKYNESVVNALKVNLQQVMSHGNDNNAVGGGVADHHQMKEGFGDSEIDDEAASYNYLNIPGMPSTGMRCKLCNVKNVSVLLVPCRHLSLCKDCDVFTGVCPVCQSLKTSSVQVFFF”, the protein production entry is “failed”.

As for “MLGNTLVGRYQIISHLGGGGFGETFVACDTHLPGLPKCVVKKLQPQANDPATLEIARRLFDTEAQVLYKLGSCDRIPQLLAYFEEDAEFYLVQEFIPGHDLSKELTPGKVFTQDEVTILLQEILTILEFVHQQNVIHRDINPRNLLRRQDGKLILIDFGAVKQITTQIVTPTGENKSTVIIGTPGYIPGEQAQGNPKFSSDIYAVGIVAIQALTGLLPHQLEHDADTHEIIWQNHAQVSSEFARFIDKMVCYDFRQRYAAATTALQALTELTQPASNTIAITPTLPPAKFRFNHTKKSIFIKLLLAILLTSATGIASVFVVNSINSNNATDLAKKGNTFFELQRYKDALSAYEQAVDIRPDYAPAWQGKGKTLFRLKQYQDALTAYDKAIQIQPDYVEAWSGRGFSLQNLQRYSEAIASFDKALQLNENYPEVWNARGEAFSNLKQYDQAIKSYDKAIEFNSDAYESFYNKGLALQSMKEYNEAINAYNKAIEIKSDYERAWYNLGNSLVNLNRYEDAFKAYDKAVQYKTDYAIAWLSRGNVLIILRRYPEALESFNQVIKFNPNNYQAWYGRGWSQHQNQRYAEAIESYKKAATIKPSNYEIWYSLGNSQYILQQYQEAIASYNKAVRYRPKHIESWYSRGNALFSLKQYKEAIASYEQAIKHKPDYSQAINARDEAQRQLQAATPKPVVIPVMPTPEFTNPPQDN”, the protein production entry is “failed”.

“MLGVILLYVGMVLMSNGLHRLEGIPDKSNVVMNIFTGGLGLILNIIVIAYGACTGQGAEWFYGSATGLLFAFTYLYSAINTIFDFDQRLYGWFSLFVAINTLPAGILCLTSGYGGNAWYGIIWFLWGVLWLTAFIEINLKKNLGKFVPYLAIFEGIVTAWIPGLLMLWGKW”: the protein production entry is reported as “failed”.

As to “MLHELFSVYLKMLVLYSPFFVLSCFISLTRGHSSKERKQLAWKVAFAALVASVLLYLFGRAIFGIFGITADAFRIGAGSVLFISALGMAQGKPAVQADNVQQDVTIVPLTIPLTVGPGTIGALLVMGVSQPHWDEKLLAIVSIALASFTVGLVLYLSHGIERLLGDQGLQIVSRLMGLFVCALAAQIIFTGIRGYLLP”, the protein production result is on record as “failed”.

As for “MLHLLTLSSLGRDLFNIKMLIVILITIGLITLMTILTYLLEQQVHRRQNRYWTIGAHGAEALSVLISMILLRQIFITLNSGSIISWTYATVQLTILLFSLNTMRNLAVEIINLLMPLFIYGQAIWLGHSTQYLPVFLAMAIILISTVVYITHNYQELHATQWKYLLFQILYSGTWWGVIWSVHPFKLSHTLVIILAFVLYMWLIRLAVNRVQKFFNEVLTFDQQVNYDELTGIRNRASFDTHAREVFAAYQHHQMGPVTMVMFDIDHFKAFNDQYGHLAGDAVLRHVAHFVELELNQRSTHGQIFRYGGEEFVIIFRGISALEAGQIMRTIQRKLKTVPIKFNVQTLNVTVSIGISELQPTDQTFTDWFVRVDDYLYQSKQAGRDQTTVESQLLTD”, the protein production result is “failed”.

As to “MLHSSIVLVIKEETMNVAKMYDDVSERYQKLVDDSHYVGPRWISGKLKTLPIEQGSALDLACATGSIGHVVKNHYPDLTIHGLDISSKMVDKARQTNLYQSVSVHNLDEPFSPLFEQTFDLITALGFTEFLAEPQQLLECISRKLTANGRCFISFQYHDPDGQDLPRNTYSGSVVHTAYTESEVEQLCQQAGLEVVSLENVIGYVSGVGYVCRYLMLELKKSHR”, the protein production entry was “failed”.

Take “MLIERIYDEDLAQASYFIGCQAHNTAVVVDPRRDIAVYLDMAKKNGMEIVGVTETHIHADYLSGTRELAAATNATMYVSGEGGADWQYEFDAERICDGSEIRLGNLVLTAVHTPGHTPEHLSFLLKDGAFADEPGFMLTGDFVFAGDLGRPDLLDEAAGGVDTRFEGARQMFKSLKEKFLTLPDHIQIFPGHGSGSACGKALGSVPSTTLGYERQFAWWGKYLEADDEQGFIDELLEGQPDAPAYFGRMKRQNRQGPAIMGARELLPQLEASDLHDVIVVDTRSADEVHQGTVAGAVNIPAGNSMAKFGSWTVDPEKDSRALVLLAASQIGAMEMWDHMVRVGIDNVAGFITNFDGVDLVAPQTVSPDQLDELEYDLLLDVRNRSEVEEGYIPGALHINGASVLWNLEKLPRDGKIVSYCKSGTRSSIAASTLRNAGFDVVELQGSYDNWVRHNAQLEHHHHHH”: the protein production result is “not failed”.

For “MLIKLTGGTVYDPANGIDGQVRNLFIRDGRIVHSLNGATPDQEYDLRGKVVMAGAIDMHTHIGGGKVTIARNLLPELEHHHHHH”, the protein production result is given as “not failed”.

With “MLIRKADAQDLDAICRLAAQINRQHHQALPELFLAAADADADRAFWRARLEGEDSVLLVAEREGAVLAFLTAQLQSSPPLPFLQARRICRIGTIVVDEACQGQGIGSRLLAAAEDWGRRQDADELRLEVMQFNQGALAFYARHGLAAQSQIMSKSLAGAAR”, the protein production entry is given as “failed”.

On to “MLIRPATTADFDALRAIELAAFETLRAAGAVSGSASASTDQQLQRYLDHGLLDVACDQSGEPIGFCGGYIAESFLHIGEMDVHPAWQRQGVGRRLLTALLEEARARKADGATLTTDRLVPFNAPFYASLGFRPLADDELPAKLREILDAEANMGLDPDRRIAMMLRF”, for which the protein production result is reported as “failed”.

Take “MLIVDTILKPDRFGGIGLFSATRLPKGSLIWIHNPIVDITVTPEQYEALAPTFQALLDKHAYPRDYKAYDGVIEYNADNARFMNHSSRPNTYQDDRRVFTARDVQPGEELTCNYLFFDPRCDVSWNEEPSMNLDAPTG”: the protein production entry is “failed”.

For “MLKKIREEFGCIFARDPAAQSFFEILTVYPGVHAVLIHRFSHWLWNHGLHWPARVLSYLARWATGIEIHPGATLGRRLFIDHGMGVVIGETAVIGDDCTLYHGVTLGGTSWQKGKRHPTLGNGVVVGAGAKVLGPITVGDGARIGSNSVVLRTVPAGATVVGIPGHIINPDRRAQEAQRLAIASRLGFDAYGMTPDMPDPVAHAINHMLDHIQALDQQVAKLKEVLRERGIDLEEAPLPDLDDCQLDPGEPQVTVNSSRTGLEHHHHHH”, the protein production entry was “not failed”.

The values above are taken from a protein production outcome set (Wang et al. 2014).
